# IntAct's records for PubMed 17483306
# B1: ATPase 2, plasma membrane-type (Arabidopsis thaliana (Mouse-ear cress)), P19456 (parent)
# chain: MSSLEDIKNETVDLEKIPIEEVFQQLKCSREGLTTQEGEDRIQIFGPNKLEEKKESKLLKFLGFMWNPLSWVMEMAAIMAIALANGDGRPPDWQDFVGIICLLVINSTISFIEENNAGNAAAALMAGLAPKTKVLRDGKWSEQEAAILVPGDIVSIKLGDIIPADARLLEGDPLKVDQSALTGESLPVTKHPGQEVFSGSTCKQGEIEAVVIATGVHTFFGKAAHLVDSTNQVGHFQKVLTAIGNFCICSIAIGMVIEIIVMYPIQRRKYRDGIDNLLVLLIGGIPIAMPTVLSVTMAIGSHRLSQQGAITKRMTAIEEMAGMDVLCSDKTGTLTLNKLSVDKNLVEVFCKGVEKDQVLLFAAMASRVENQDAIDAAMVGMLADPKEARAGIREVHFLPFNPVDKRTALTYIDGSGNWHRVSKGAPEQILELAKASNDLSKKVLSIIDKYAERGLRSLAVARQVVPEKTKESPGAPWEFVGLLPLFDPPRHDSAETIRRALNLGVNVKMITGDQLAIGKETGRRLGMGTNMYPSSALLGTHKDANLASIPVEELIEKADGFAGVFPEHKYEIVKKLQERKHIVGMTGDGVNDAPALKKADIGIAVADATDAARGASDIVLTEPGLSVIISAVLTSRAIFQRMKNYTIYAVSITIRIVFGFMLIALIWEFDFSAFMVLIIAILNDGTIMTISKDRVKPSPTPDSWKLKEIFATGVVLGGYQAIMTVIFFWAAHKTDFFSDTFGVRSIRDNNHELMGAVYLQVSIISQALIFVTRSRSWSFVERPGALLMIAFLIAQLIATLIAVYANWEFAKIRGIGWGWAGVIWLYSIVTYFPLDVFKFAIRYILSGKAWLNLFENKTAFTMKKDYGKEEREAQWALAQRTLHGLQPKEAVNIFPEKGSYRELSEIAEQAKRRAEIARLRELHTLKGHVESVVKLKGLDIETPSHYTV
# partner: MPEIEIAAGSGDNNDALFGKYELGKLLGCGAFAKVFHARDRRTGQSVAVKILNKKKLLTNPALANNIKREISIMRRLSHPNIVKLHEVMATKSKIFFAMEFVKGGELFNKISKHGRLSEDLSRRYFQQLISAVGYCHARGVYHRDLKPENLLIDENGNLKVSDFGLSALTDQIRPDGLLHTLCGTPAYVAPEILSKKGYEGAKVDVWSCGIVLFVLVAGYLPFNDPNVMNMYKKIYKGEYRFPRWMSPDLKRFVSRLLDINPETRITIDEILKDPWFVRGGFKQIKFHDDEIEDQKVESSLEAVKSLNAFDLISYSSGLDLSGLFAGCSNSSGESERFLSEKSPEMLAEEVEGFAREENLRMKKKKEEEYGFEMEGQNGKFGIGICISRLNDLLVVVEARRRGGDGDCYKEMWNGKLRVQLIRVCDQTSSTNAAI
# B2: ATPase 2, plasma membrane-type (Arabidopsis thaliana (Mouse-ear cress)), P19456 (parent)
# chain: B1 chain
# partner: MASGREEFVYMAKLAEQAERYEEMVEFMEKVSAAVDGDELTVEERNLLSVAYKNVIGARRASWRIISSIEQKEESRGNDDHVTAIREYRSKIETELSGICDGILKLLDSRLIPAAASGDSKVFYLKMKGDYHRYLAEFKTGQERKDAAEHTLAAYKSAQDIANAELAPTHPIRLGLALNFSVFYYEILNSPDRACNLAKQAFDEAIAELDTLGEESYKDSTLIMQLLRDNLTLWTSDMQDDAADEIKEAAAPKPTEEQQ
# Variants of: B1
# Details: with cipkb_arath CIPK11, O22932
row,Variant,effect of a mutation on the interaction
1,S931A,disrupting interaction

# Variants of: B2
# Details: with 14332_arath GRF2, Q01525
row,Variant,effect of a mutation on the interaction
1,S931A,increasing interaction
2,S931D,disrupting interaction
3,R913A;S931D,decreasing interaction
